Results as given in article PMC8126724, “Infant-Associated Bifidobacterial β-Galactosidases and Their Ability to Synthesize Galacto-Oligosaccharides” (Frontiers in Microbiology, 2021).
Each block holds one substance with its values, some of them ahead of it.

Columns and labels:
[1] = target: BgaA β-galactosidase (Bbr_0010) (B. breve UCC2003); assay: SEC-MALS; Superose 6 10/300 G/L, 50 mM Tris-HCl, 150 mM NaCl, pH 7.5, 0.5 mL/min; dual-angle light scattering (RALS/LALS) and refractometer (OmniSec REVEAL); protein concentrations in Supplementary Table 1; native mass compared with the calculated monomer mass (with His-tag)
[2] = target: BgaB β-galactosidase (Bbr_0529) (B. breve UCC2003); assay: as above
[3] = target: BgaC β-galactosidase (B216_08266) (B. bifidum LMG 13195); assay: as above
[4] = target: BgaD β-galactosidase (B8809_0415) (B. longum subsp. longum NCIMB 8809); assay: as above
[5] = target: BgaE β-galactosidase (B8809_0611) (B. longum subsp. longum NCIMB 8809); assay: as above
[6] = system: O=[N+]([O-])c1ccccc1O[C@@H]1O[C@H](CO)[C@H](O)[C@H](O)[C@H]1O; assay: o-nitrophenol release, A420; format: biochemical, Bifidobacterium longum subsp. longum; details: 0.1 M sodium acetate pH 6.5, 40 °C, unit mM, not in table
From the text: o-nitrophenol release, A420 on BgaF

[7] = target: BgaG β-galactosidase (Blon_2016) (B. longum subsp. infantis ATCC 15697); assay: SEC-MALS; Superose 6 10/300 G/L, 50 mM Tris-HCl, 150 mM NaCl, pH 7.5, 0.5 mL/min; dual-angle light scattering (RALS/LALS) and refractometer (OmniSec REVEAL); protein concentrations in Supplementary Table 1; native mass compared with the calculated monomer mass (with His-tag)

Substance: BgaC β-galactosidase (B216_08266) (enzyme)
stoichiometry N [3]: 3

Substance: BgaE β-galactosidase (B8809_0611) (enzyme)
stoichiometry N [5]: 4

Substance: BgaF (Bifidobacterium longum subsp. longum)
Km [6]: 5.178 mM

Further lines, results first:

stoichiometry N [1]: 2
Substance: BgaA β-galactosidase (Bbr_0010) (enzyme)

stoichiometry N [2]: 3
Substance: BgaB β-galactosidase (Bbr_0529) (enzyme)

stoichiometry N [4]: 3
Substance: BgaD β-galactosidase (B8809_0415) (enzyme)

stoichiometry N [7]: 3
Substance: BgaG β-galactosidase (Blon_2016) (enzyme)
